The target in this assay is acetylcholine receptor (Homo sapiens, UniProt P02708). The assay can be described thus: SPR binding affinity (RU) of optimized 5mer/6mer/7mer peptides, Examples 6-7. The settings on record: SPR, Resonance Units; 5mer Bottom sequence (bottom combinations); peptides tested at 10 μM. As to the method:
Based on the frequencies of occurrence of the top 7 amino acids from Table 7 in Example 5, 600 peptides comprising these amino acids (top combinations) and those comprising the 13 less frequently occurring amino acids (bottom combinations) were synthesized for each series of 5mer, 6mer-1, and 6mer-2. The binding affinity of each sequence for the acetylcholine receptor was measured using Surface Plasmon Resonance (SPR) analysis method. The peptides were tested at a concentration of 10 μM. Additionally, the average binding affinities of the top and bottom combinations in each series are depicted in FIGS. 5-7.
Representative peptides identified in Example 6, two in each library, including 5mers (73, 311) and 6mers-1 (43, 210) and 6mers-2 (136, 233), were compared with the pre-optimized 6mer, 5mer-ND, and Synake.
In general terms: Surface plasmon resonance follows binding to a sensor surface in real time, without labels.

Chain of acetylcholine receptor (P02708 21-457): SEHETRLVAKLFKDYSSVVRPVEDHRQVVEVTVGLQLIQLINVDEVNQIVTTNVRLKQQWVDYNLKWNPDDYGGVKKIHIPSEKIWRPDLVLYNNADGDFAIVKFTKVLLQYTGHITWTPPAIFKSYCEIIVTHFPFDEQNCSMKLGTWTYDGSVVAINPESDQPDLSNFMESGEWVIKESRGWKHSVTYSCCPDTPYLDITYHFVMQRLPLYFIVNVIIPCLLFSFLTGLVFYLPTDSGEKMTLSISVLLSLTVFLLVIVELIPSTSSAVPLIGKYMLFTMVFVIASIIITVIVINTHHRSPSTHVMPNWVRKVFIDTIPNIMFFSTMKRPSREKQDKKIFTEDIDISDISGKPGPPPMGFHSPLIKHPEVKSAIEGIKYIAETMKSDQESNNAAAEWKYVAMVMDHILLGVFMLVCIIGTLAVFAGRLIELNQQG

Consider 5mer-622 (RKPKR), for which the Binding affinity amounted to 22 Ru.

Take 5mer-623 (KNTGR): the Binding affinity is given as 19 Ru.

Consider 5mer-624 (KEHER), for which the Binding affinity was 22 Ru.

With 5mer-625 (KMCDR), the Binding affinity came to 33 Ru.

5mer-626 (KICMR): the Binding affinity worked out at 12 Ru.

For 5mer-627 (KMSPK), the Binding affinity turned out to be 30 Ru.

Take 5mer-628 (RYMDR): the Binding affinity was 19 Ru.

On to 5mer-629 (RPTNK), for which the Binding affinity was 32 Ru.

Take 5mer-630 (RITFR): the Binding affinity stood at 30 Ru.

Turning to 5mer-631 (RPANR), the Binding affinity stood at 17 Ru.

5mer-632 (RFSHR): the Binding affinity came to 33 Ru.

Regarding 5mer-633 (RAAKR), the Binding affinity is reported as 20 Ru.

On to 5mer-634 (RMMMR), for which the Binding affinity was 26 Ru.

Regarding 5mer-635 (RMNGR), the Binding affinity is reported as 21 Ru.

Turning to 5mer-636 (KDKGR), the Binding affinity is given as 11 Ru.

Regarding 5mer-637 (KCDHK), the Binding affinity is recorded as 28 Ru.

For the substance 5mer-638 (KHCIR), the Binding affinity is listed as 33 Ru.

On to 5mer-639 (KETWK), for which the Binding affinity amounted to 13 Ru.

In the case of 5mer-640 (KNPHK), the Binding affinity is reported as 15 Ru.

Consider 5mer-641 (RITWK), for which the Binding affinity was 22 Ru.

With 5mer-642 (RAWDR), the Binding affinity is reported as 22 Ru.

5mer-643 (KHDGR): the Binding affinity was 28 Ru.

Take 5mer-644 (RMKWK): the Binding affinity was found to be 24 Ru.

As to 5mer-645 (RHKDK), the Binding affinity amounted to 20 Ru.

Take 5mer-646 (KDTKR): the Binding affinity is 16 Ru.

Regarding 5mer-647 (KHTVK), the Binding affinity worked out at 29 Ru.

Consider 5mer-648 (KNKKR), for which the Binding affinity is 15 Ru.

Consider 5mer-649 (RYSFK), for which the Binding affinity is recorded as 20 Ru.

5mer-650 (RPEDK): the Binding affinity is listed as 22 Ru.

Regarding 5mer-651 (RFTVR), the Binding affinity turned out to be 11 Ru.

On to 5mer-652 (RCAAR), for which the Binding affinity was 23 Ru.

As to 5mer-653 (KTTWK), the Binding affinity came to 16 Ru.

5mer-654 (KEWNR): the Binding affinity was 27 Ru.

For the substance 5mer-655 (RKCIR), the Binding affinity turned out to be 15 Ru.

Take 5mer-656 (KATGR): the Binding affinity was determined as 13 Ru.

On to 5mer-657 (KDNDR), for which the Binding affinity is reported as 22 Ru.

As for 5mer-658 (KKWGR), the Binding affinity was 31 Ru.

In the case of 5mer-659 (KIHEK), the Binding affinity stood at 22 Ru.

On to 5mer-660 (KFDVK), for which the Binding affinity worked out at 11 Ru.

Turning to 5mer-661 (RCNMK), the Binding affinity came out at 30 Ru.

Turning to 5mer-662 (KIEEK), the Binding affinity is 28 Ru.

With 5mer-663 (RATPR), the Binding affinity was determined as 31 Ru.

Consider 5mer-664 (KPTWR), for which the Binding affinity turned out to be 17 Ru.

As for 5mer-665 (KTWEK), the Binding affinity was determined as 26 Ru.

As to 5mer-666 (RHDWR), the Binding affinity was 18 Ru.

Turning to 5mer-667 (RDCHR), the Binding affinity was 16 Ru.

In the case of 5mer-668 (RPHAK), the Binding affinity worked out at 27 Ru.

In the case of 5mer-669 (RNPER), the Binding affinity turned out to be 24 Ru.

With 5mer-670 (KPCVK), the Binding affinity was 23 Ru.

In the case of 5mer-671 (KMNAK), the Binding affinity came to 21 Ru.

For 5mer-672 (KHAPK), the Binding affinity amounted to 12 Ru.

For 5mer-673 (RISPR), the Binding affinity is reported as 14 Ru.

In the case of 5mer-674 (KETHR), the Binding affinity is recorded as 22 Ru.

For the substance 5mer-675 (RKPGR), the Binding affinity is recorded as 31 Ru.

On to 5mer-676 (RTMFR), for which the Binding affinity was determined as 18 Ru.

Regarding 5mer-677 (RCEMR), the Binding affinity was determined as 15 Ru.

Take 5mer-678 (KYMGR): the Binding affinity turned out to be 23 Ru.

For the substance 5mer-679 (KKTVK), the Binding affinity is recorded as 21 Ru.

On to 5mer-680 (RFTER), for which the Binding affinity is recorded as 21 Ru.

5mer-681 (KDTMR): the Binding affinity amounted to 18 Ru.

Turning to 5mer-682 (KPNVK), the Binding affinity is listed as 31 Ru.

On to 5mer-683 (KYPDK), for which the Binding affinity is recorded as 32 Ru.

In the case of 5mer-684 (KCAER), the Binding affinity is given as 27 Ru.

For the substance 5mer-685 (RNDIK), the Binding affinity was found to be 21 Ru.

As to 5mer-686 (RFNIR), the Binding affinity is reported as 18 Ru.

Turning to 5mer-687 (RMEIR), the Binding affinity was 22 Ru.

5mer-688 (RPHFK): the Binding affinity was 31 Ru.

For 5mer-689 (RFSDK), the Binding affinity was determined as 20 Ru.

In the case of 5mer-690 (RAEIK), the Binding affinity was found to be 12 Ru.

For 5mer-691 (KEWEK), the Binding affinity is on record as 16 Ru.

With 5mer-692 (RDHWK), the Binding affinity is reported as 15 Ru.

For the substance 5mer-693 (RPSKK), the Binding affinity is 17 Ru.

On to 5mer-694 (KNNAR), for which the Binding affinity was 24 Ru.

As to 5mer-695 (KKPDR), the Binding affinity was 26 Ru.

For the substance 5mer-696 (RCEHR), the Binding affinity came to 11 Ru.

For 5mer-697 (KASKK), the Binding affinity is listed as 25 Ru.

With 5mer-698 (KFDWK), the Binding affinity is 12 Ru.

As for 5mer-699 (KKNER), the Binding affinity was 12 Ru.

As to 5mer-700 (RAWER), the Binding affinity is given as 17 Ru.

As to 5mer-701 (RNHNK), the Binding affinity is 22 Ru.

For the substance 5mer-702 (KISHK), the Binding affinity is recorded as 30 Ru.

With 5mer-703 (KPNWR), the Binding affinity is given as 22 Ru.

Take 5mer-704 (RFMGK): the Binding affinity came to 28 Ru.

Regarding 5mer-705 (RHAKK), the Binding affinity is 15 Ru.

For 5mer-706 (RKMAK), the Binding affinity stood at 27 Ru.

On to 5mer-707 (KIEAK), for which the Binding affinity came to 32 Ru.

Consider 5mer-708 (KPKAR), for which the Binding affinity came out at 20 Ru.

On to 5mer-709 (RHTIR), for which the Binding affinity amounted to 27 Ru.

5mer-710 (KEKAR): the Binding affinity was 21 Ru.

In the case of 5mer-711 (KECIK), the Binding affinity is given as 32 Ru.

As to 5mer-712 (RADFK), the Binding affinity is given as 18 Ru.

As to 5mer-713 (KYPKK), the Binding affinity amounted to 16 Ru.

Consider 5mer-714 (RPCAK), for which the Binding affinity worked out at 32 Ru.

For 5mer-715 (KCNGR), the Binding affinity was 22 Ru.

Take 5mer-716 (KINVR): the Binding affinity is listed as 25 Ru.

For the substance 5mer-717 (KCKFR), the Binding affinity turned out to be 20 Ru.

5mer-718 (RNKKK): the Binding affinity is given as 19 Ru.

As for 5mer-719 (KISER), the Binding affinity was determined as 21 Ru.

Take 5mer-720 (KDPKR): the Binding affinity is on record as 32 Ru.

For 5mer-721 (RYSKK), the Binding affinity is 22 Ru.

For the substance 5mer-722 (KNHKK), the Binding affinity was determined as 33 Ru.

With 5mer-723 (RASPR), the Binding affinity came out at 22 Ru.

On to 5mer-724 (KTTAK), for which the Binding affinity is 14 Ru.

Regarding 5mer-725 (RNADR), the Binding affinity was 19 Ru.

Regarding 5mer-726 (KATMK), the Binding affinity amounted to 33 Ru.

For 5mer-727 (KMDAR), the Binding affinity was found to be 31 Ru.

With 5mer-728 (KPHIK), the Binding affinity is given as 19 Ru.

Take 5mer-729 (KEPDK): the Binding affinity was determined as 23 Ru.

Consider 5mer-730 (KFCNK), for which the Binding affinity came out at 27 Ru.

For the substance 5mer-731 (KADHK), the Binding affinity was 18 Ru.

Take 5mer-732 (KIMWR): the Binding affinity is on record as 22 Ru.

For the substance 5mer-733 (KTCDR), the Binding affinity is on record as 23 Ru.

Regarding 5mer-734 (KATER), the Binding affinity was 16 Ru.

Turning to 5mer-735 (RHCER), the Binding affinity is 11 Ru.

With 5mer-736 (KKHHR), the Binding affinity stood at 24 Ru.

Regarding 5mer-737 (RINVR), the Binding affinity is 13 Ru.

For 5mer-738 (KTPMK), the Binding affinity is 29 Ru.

Take 5mer-739 (KDCPR): the Binding affinity is on record as 16 Ru.

In the case of 5mer-740 (RMMGK), the Binding affinity was found to be 21 Ru.

As to 5mer-741 (KPTPR), the Binding affinity was 14 Ru.

As to 5mer-742 (RNSDK), the Binding affinity was determined as 11 Ru.

With 5mer-743 (KYAFR), the Binding affinity worked out at 15 Ru.

As for 5mer-744 (KTEAK), the Binding affinity is 32 Ru.

As to 5mer-745 (RMEIK), the Binding affinity is given as 14 Ru.

Turning to 5mer-746 (RMTVK), the Binding affinity is listed as 26 Ru.

Turning to 5mer-747 (RKTDK), the Binding affinity was 31 Ru.

Consider 5mer-748 (REPMK), for which the Binding affinity is reported as 12 Ru.

5mer-749 (KHTWR): the Binding affinity turned out to be 24 Ru.

For 5mer-750 (KEADK), the Binding affinity was found to be 13 Ru.

As to 5mer-751 (RYMMR), the Binding affinity was found to be 20 Ru.

On to 5mer-752 (KAWVK), for which the Binding affinity stood at 26 Ru.

Turning to 5mer-753 (RKTPK), the Binding affinity is recorded as 30 Ru.

For 5mer-754 (RKNER), the Binding affinity came to 29 Ru.

Turning to 5mer-755 (KNWDR), the Binding affinity is 15 Ru.

With 5mer-756 (RCDWR), the Binding affinity is 18 Ru.

Take 5mer-757 (KYCMR): the Binding affinity is listed as 17 Ru.

With 5mer-758 (KCDFK), the Binding affinity came out at 30 Ru.

Source of the values: patent publication US20250011363A1, “OPTIMIZED SHORTENED PEPTIDE THAT BINDS TO ACETYLCHOLINE RECEPTOR, AND USE THEREOF” (SKINMED CO., LTD., priority 2021, published 2025).
